Target: the molecule itself
Experiment: SEC-MALS

B1: PA-PB1-PB2(1-116) truncated heterotrimer (construct 15) (complex)
chain 1: […]
chain 2: MDVNPTLLFLKVPAQNAISTTFPYTGDPPYSHGTGTGYTMDTVNRTHQYSEKGKWTTNTETGAAQLNPIDGPLPEDNEPSGYAQTDCVLEAMAFLEESHPGIFENSCLETMEVVQQTRVDRLTQGRQTYDWTLNRNQPAATALANTIEVFRSNGLIANESGRLIDFLKDVIESMDKEEMEITTHFQRKRRVRDNMTKKMVTQRTIGKKKQRVNKRSYLIRALTLNTMTKDAERGKLKRRAIATPGMQIRGFVYFVETLARSICEKLEQSGLPVGGNEKKAKLANVVRKMMTNSQDTELSFTITGDNTKWNENQNPRMFLAMITYITKNQPEWFRNILSIAPIMFSNKMARLGKGYMFESKRMKLRTQIPAEMLASIDLKYFNESTRKKIEKIRPLLIDGTASLSPGMMMGMFNMLSTVLGVSILNLGQKKYTKTTYWWDGLQSSDDFALIVNAPNHEGIQAGVDRFYRTCKLVGINMSKKKSYINRTGTFEFTSFFYRYGFVANFSMELPSFGVSGINESADMSIGVTVIKNNMINNDLGPATAQMALQLFIKDYRYTYRCHRGDTQIQTRRSFELKKLWEQTRSKAGLLVSDGGPNLYNIRNLHIPEVCLKWELMDEDYQGRLCNPLNPFVSHKEIESVNNAVVMPAHGPAKSMEYDAVATTHSWIPKRNRSILNTSQRGILEDEQMYQKCCNLFEKFFPSSSYRRPVGISSMVEAMVSRARIDARIDFESGRIKKEEFSEIMKICSTIEELRRQK
chain 3: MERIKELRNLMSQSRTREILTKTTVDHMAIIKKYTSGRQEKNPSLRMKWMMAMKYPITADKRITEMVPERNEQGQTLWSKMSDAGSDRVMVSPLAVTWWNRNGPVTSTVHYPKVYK
notes: copies: + +
- stoichiometry N: 2

B2: PA-PB1-PB2(1-250) truncated heterotrimer (construct 16) (complex)
chain 1: […]
chain 2: MDVNPTLLFLKVPAQNAISTTFPYTGDPPYSHGTGTGYTMDTVNRTHQYSEKGKWTTNTETGAAQLNPIDGPLPEDNEPSGYAQTDCVLEAMAFLEESHPGIFENSCLETMEVVQQTRVDRLTQGRQTYDWTLNRNQPAATALANTIEVFRSNGLIANESGRLIDFLKDVIESMDKEEMEITTHFQRKRRVRDNMTKKMVTQRTIGKKKQRVNKRSYLIRALTLNTMTKDAERGKLKRRAIATPGMQIRGFVYFVETLARSICEKLEQSGLPVGGNEKKAKLANVVRKMMTNSQDTELSFTITGDNTKWNENQNPRMFLAMITYITKNQPEWFRNILSIAPIMFSNKMARLGKGYMFESKRMKLRTQIPAEMLASIDLKYFNESTRKKIEKIRPLLIDGTASLSPGMMMGMFNMLSTVLGVSILNLGQKKYTKTTYWWDGLQSSDDFALIVNAPNHEGIQAGVDRFYRTCKLVGINMSKKKSYINRTGTFEFTSFFYRYGFVANFSMELPSFGVSGINESADMSIGVTVIKNNMINNDLGPATAQMALQLFIKDYRYTYRCHRGDTQIQTRRSFELKKLWEQTRSKAGLLVSDGGPNLYNIRNLHIPEVCLKWELMDEDYQGRLCNPLNPFVSHKEIESVNNAVVMPAHGPAKSMEYDAVATTHSWIPKRNRSILNTSQRGILEDEQMYQKCCNLFEKFFPSSSYRRPVGISSMVEAMVSRARIDARIDFESGRIKKEEFSEIMKICSTIEELRRQK
chain 3: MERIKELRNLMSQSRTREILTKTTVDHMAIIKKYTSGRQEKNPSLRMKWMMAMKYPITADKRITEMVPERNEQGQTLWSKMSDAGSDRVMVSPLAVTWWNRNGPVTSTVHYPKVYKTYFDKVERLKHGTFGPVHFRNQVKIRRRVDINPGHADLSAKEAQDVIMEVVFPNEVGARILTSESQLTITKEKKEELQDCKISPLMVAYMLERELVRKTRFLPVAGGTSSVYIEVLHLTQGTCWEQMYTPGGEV
notes: copies: + +
- stoichiometry N: 2
